Measured values from publication PMC9092470, “Understanding p300-transcription factor interactions using sequence variation and hybridization†” (RSC Chemical Biology, 2022).
No end group written: not given here.

Biological target: GST-tagged p300 CH1 domain (residues 330–420) (UniProt Q09472)
Assay: fluorescence polarisation; fluorescence anisotropy by the fluorescence of GFP; GFP-HIF-1α 776–826 variants with GST-p300; 25 mM Tris–HCl, 150 mM NaCl, 1 mM DTT, pH 7.4; 1:1 model, each p300 site of the GST dimer taken as independent
Conditions: not given

**Q.** With “GFP-HIF-1α 776–826 D799A (from UniProt Q16665 776-826) (domain or fragment)” as the substance, how does the Kd read?
**A.** 114 nM

**Q.** With “GFP-HIF-1α 776–826 D799A E801A N803A (from UniProt Q16665 776-826) (domain or fragment)” as the substance, how does the Kd read?
**A.** 590 nM

**Q.** How did the Kd turn out when “GFP-HIF-1α 776–826 E801A L822A (from UniProt Q16665 776-826) (domain or fragment)” was run?
**A.** 224 nM

**Q.** Which Kd does the source give for “GFP-HIF-1α 776–826 E817A (from UniProt Q16665 776-826) (domain or fragment)” here?
**A.** 128 nM

**Q.** Which Kd does the source give for “GFP-HIF-1α 776–826 L795A (from UniProt Q16665 776-826) (domain or fragment)” here?
**A.** 118 nM

**Q.** For “GFP-HIF-1α 776–826 L795A D799A (from UniProt Q16665 776-826) (domain or fragment)”, which Kd is on record?
**A.** 255 nM

**Q.** For “GFP-HIF-1α 776–826 L795A D799A L818A L822A V825A (from UniProt Q16665 776-826) (domain or fragment)”, which Kd is on record?
**A.** 153 nM

**Q.** With “GFP-HIF-1α 776–826 L795A D799A L822A (from UniProt Q16665 776-826) (domain or fragment)” as the substance, how does the Kd read?
**A.** 174 nM

**Q.** With “GFP-HIF-1α 776–826 L818A (from UniProt Q16665 776-826) (domain or fragment)” as the substance, how does the Kd read?
**A.** 237 nM

**Q.** For “GFP-HIF-1α 776–826 L818A L822A (from UniProt Q16665 776-826) (domain or fragment)”, which Kd is on record?
**A.** 126 nM

**Q.** With “GFP-HIF-1α 776–826 L818A L822A D823A (from UniProt Q16665 776-826) (domain or fragment)” as the substance, how does the Kd read?
**A.** 247 nM

**Q.** With “GFP-HIF-1α 776–826 L818A L822A V825A (from UniProt Q16665 776-826) (domain or fragment)” as the substance, how does the Kd read?
**A.** 54 nM

**Q.** “GFP-HIF-1α 776–826 L822A (from UniProt Q16665 776-826) (domain or fragment)” was tested. Which Kd did it give?
**A.** 109 nM

**Q.** Which Kd does the source give for “GFP-HIF-1α 776–826 N803A (from UniProt Q16665 776-826) (domain or fragment)” here?
**A.** 120 nM

**Q.** Which Kd does the source give for “GFP-HIF-1α 776–826 Q824A (from UniProt Q16665 776-826) (domain or fragment)” here?
**A.** 31 nM

**Q.** Which Kd does the source give for “GFP-HIF-1α 776–826 S797A (from UniProt Q16665 776-826) (domain or fragment)” here?
**A.** 37 nM

**Q.** How did the Kd turn out when “GFP-HIF-1α 776–826 V825A (from UniProt Q16665 776-826) (domain or fragment)” was run?
**A.** 198 nM

Biological target: GST-p300 (p300 CH1 domain, residues 330–420) (Homo sapiens, UniProt Q09472)
Assay: Fluorescence anisotropy direct titration of GFP-HIF-1α776–826 variants with GST-p300
Assay type: binding
Conditions: 50 nM GFP-HIF-1α776–826 variant, GST-p300 serial dilution, 25 mM Tris–HCl, 150 mM NaCl, 1 mM DTT, pH 7.4, 27 °C, 1:1 model, ± standard error of fitted value, technical triplicates
Description: To experimentally compare the predictions, we carried out an in vitro biophysical study of several HIF-1α sequence variants. We assessed predicted hot residues and their interactions with p300 using the NMR structure to visualize the structural basis behind the predictions (See ESI, ^† Fig. S2). These analyses helped refine a first series of alanine variants to prepare. […] HIF-1α776–826 sequence variants were recombinantly prepared based on the predictions to test their binding to the recombinantly prepared p300 (Fig. 2). Given the length of the peptide ([…]), this was considered advantageous as it obviates the need to chemically synthesise, label and purify multiple variants. As the C-TAD domain is unstructured in isolation it was recombinantly expressed as a fusion protein with GFP. The green-fluorescent protein (GFP) tag was used for fluorescence anisotropy (FA) experiments to determine the binding affinity of HIF-1α776–826 C-TAD variants to p300. As the CH1 domain of p300 is a small domain of 11 kDa it was recombinantly expressed as a fusion protein with GST to increase its size and thus the signal to noise in the FA experiments. We established an assay where the interaction between GFP-tagged wt HIF-1α776–826 and GST-tagged p300 was monitored by FA, using the fluorescence of GFP. GST dimerises with single digit nM Kd[61] (and in our hands exists as a dimer in size exclusion chromatography analyses, see ESI, ^† Fig. S15 for protein characterization data), thus two molecules of GFP-HIF-1α could bind to the GST-p300 dimer (Fig. 2a). We make the assumption that each p300 binding site behaves independently and analyse the binding isotherm using a 1 : 1 model.
Fig. 2 Biophysical analyses on the effects of HIF-1α sequence variant p300 binding affinity. (a) schematic depicting the equilibrium for interaction of GFP-HIF-1α776–826 variants and GST-p300 as studied by fluorescence anisotropy; (b) representative fluorescence anisotropy titration data for sAV and mAV GFP-HIF-1α776–826 peptides interacting with GST-p300 (25 mM Tris–HCl, 150 mM NaCl, 1 mM DTT, pH 7.4), error bars represent standard deviation of technical triplicates; (c) raw ITC data (upper) and fitted thermogram (lower) for the interaction of GFP-HIF-1α776–826 peptides with p300 (37 °C in 25 mM Tris–HCl, 150 mM NaCl, 1 mM DTT, pH 7.4) using 10 μM p300 in the cell and 100 μM GFP-HIF-1α776–826 variant in the syringe; error bars represent estimated integration errors (d) thermodynamic signatures for each interaction. […]
7.4 buffer or dialysed into 25 mM Tris, 150 mM NaCl, 1 mM DTT pH 7.4 buffer.
GSTp300 protein was serially diluted in buffer (25 mM Tris-HCl, 150 mM NaCl, 1mM DTT, pH 7.4) and GFP-HIF-1α (50nM final concentration) was added, the plates were read after 0 min, 60 min, 4 h and 24 h, and incubated at room temperature in between. Each experiment was run in triplicate and the fluorescence anisotropy measured using an EnVision 2103 MultiLabel plate reader (Perkin Elmer) with excitation at 480 nm and emission at 535 nm (30 nm bandwidths). The recorded temperature for all measurements was 27°C ± 1°C. In parallel, a control experiment was performed in which no GFP-HIF was added and the volume made up with additional buffer, this blank was deducted from the raw data for each of the three repeats.
The intensity was calculated for each point using eqn (1) and used to calculated anisotropy […]
using eqn (2). From a plot of anisotropy against GST-p300 concentration the minimum and maximum anisotropies were obtained using a logistic sigmoidal fit in OriginPro 8.6. This allowed the conversion to fraction bound (eqn (3)). The data were then fitted using eqn (4) in OriginPro 8.6 to determine the dissociation constant, Kd. […]
5 µl injections and 180 s spacing between injections, for 40 injections. Titrations were performed in 40 mM Na-phosphate, pH 7.5 100 mM NaCl, 1 mM DTT buffer except for GFP- […]

Sequence of GST-p300 (p300 CH1 domain, residues 330–420) (Q09472 330-420): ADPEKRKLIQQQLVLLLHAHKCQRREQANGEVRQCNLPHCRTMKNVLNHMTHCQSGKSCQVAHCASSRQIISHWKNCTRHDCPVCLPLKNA

**Q.** “D799A E801A N803A: GFP-HIF-1α776–826 C-TAD multiple alanine variant ({GFP}-SDLACRLLGQSMDESGLPQLTSYACAVAAPIQGSRNLLQGEELLRALDQVN; cysteine pairing not given here)” was tested. Which Kd did it give?
**A.** 590 ± 302 nM

**Q.** “D799A: GFP-HIF-1α776–826 C-TAD single alanine variant D799A ({GFP}-SDLACRLLGQSMDESGLPQLTSYACEVNAPIQGSRNLLQGEELLRALDQVN; cysteine pairing not given here)” was tested. Which Kd did it give?
**A.** 114 ± 53 nM

**Q.** Which Kd does the source give for “E801A L822A: GFP-HIF-1α776–826 C-TAD multiple alanine variant ({GFP}-SDLACRLLGQSMDESGLPQLTSYDCAVNAPIQGSRNLLQGEELLRAADQVN; cysteine pairing not given here)” here?
**A.** 224 ± 18 nM

**Q.** Which Kd does the source give for “E817A: GFP-HIF-1α776–826 C-TAD single alanine variant E817A ({GFP}-SDLACRLLGQSMDESGLPQLTSYDCEVNAPIQGSRNLLQGEALLRALDQVN; cysteine pairing not given here)” here?
**A.** 128 ± 11 nM

**Q.** How did the Kd turn out when “L795A D799A L818A L822A V825A: GFP-HIF-1α776–826 C-TAD multiple alanine variant ({GFP}-SDLACRLLGQSMDESGLPQATSYACEVNAPIQGSRNLLQGEEALRAADQAN; cysteine pairing not given here)” was run?
**A.** 153 ± 19 nM

**Q.** With “L795A D799A L822A: GFP-HIF-1α776–826 C-TAD multiple alanine variant ({GFP}-SDLACRLLGQSMDESGLPQATSYACEVNAPIQGSRNLLQGEELLRAADQVN; cysteine pairing not given here)” as the substance, how does the Kd read?
**A.** 174 ± 45 nM

**Q.** Which Kd does the source give for “L795A D799A: GFP-HIF-1α776–826 C-TAD multiple alanine variant ({GFP}-SDLACRLLGQSMDESGLPQATSYACEVNAPIQGSRNLLQGEELLRALDQVN; cysteine pairing not given here)” here?
**A.** 255 ± 44 nM

**Q.** Which Kd does the source give for “L795A: GFP-HIF-1α776–826 C-TAD single alanine variant L795A ({GFP}-SDLACRLLGQSMDESGLPQATSYDCEVNAPIQGSRNLLQGEELLRALDQVN; cysteine pairing not given here)” here?
**A.** 118 ± 19 nM

**Q.** With “L818A L822A D823A: GFP-HIF-1α776–826 C-TAD multiple alanine variant ({GFP}-SDLACRLLGQSMDESGLPQLTSYDCEVNAPIQGSRNLLQGEEALRAAAQVN; cysteine pairing not given here)” as the substance, how does the Kd read?
**A.** 247 ± 75 nM

**Q.** “L818A L822A V825A: GFP-HIF-1α776–826 C-TAD multiple alanine variant ({GFP}-SDLACRLLGQSMDESGLPQLTSYDCEVNAPIQGSRNLLQGEEALRAADQAN; cysteine pairing not given here)” was tested. Which Kd did it give?
**A.** 54 ± 33 nM

**Q.** How did the Kd turn out when “L818A L822A: GFP-HIF-1α776–826 C-TAD multiple alanine variant ({GFP}-SDLACRLLGQSMDESGLPQLTSYDCEVNAPIQGSRNLLQGEEALRAADQVN; cysteine pairing not given here)” was run?
**A.** 126 ± 33 nM

**Q.** “L818A: GFP-HIF-1α776–826 C-TAD single alanine variant L818A ({GFP}-SDLACRLLGQSMDESGLPQLTSYDCEVNAPIQGSRNLLQGEEALRALDQVN; cysteine pairing not given here)” was tested. Which Kd did it give?
**A.** 237 ± 40 nM

**Q.** Which Kd does the source give for “L822A: GFP-HIF-1α776–826 C-TAD single alanine variant L822A ({GFP}-SDLACRLLGQSMDESGLPQLTSYDCEVNAPIQGSRNLLQGEELLRAADQVN; cysteine pairing not given here)” here?
**A.** 109 ± 66 nM

**Q.** How did the Kd turn out when “N803A: GFP-HIF-1α776–826 C-TAD single alanine variant N803A ({GFP}-SDLACRLLGQSMDESGLPQLTSYDCEVAAPIQGSRNLLQGEELLRALDQVN; cysteine pairing not given here)” was run?
**A.** 120 ± 17 nM

**Q.** With “Q824A: GFP-HIF-1α776–826 C-TAD single alanine variant Q824A ({GFP}-SDLACRLLGQSMDESGLPQLTSYDCEVNAPIQGSRNLLQGEELLRALDAVN; cysteine pairing not given here)” as the substance, how does the Kd read?
**A.** 31 ± 8 nM

**Q.** Which Kd does the source give for “S797A: GFP-HIF-1α776–826 C-TAD single alanine variant S797A ({GFP}-SDLACRLLGQSMDESGLPQLTAYDCEVNAPIQGSRNLLQGEELLRALDQVN; cysteine pairing not given here)” here?
**A.** 37 ± 16 nM

**Q.** “V825A: GFP-HIF-1α776–826 C-TAD single alanine variant V825A ({GFP}-SDLACRLLGQSMDESGLPQLTSYDCEVNAPIQGSRNLLQGEELLRALDQAN; cysteine pairing not given here)” was tested. Which Kd did it give?
**A.** 198 ± 37 nM
